Measurements reported in US20250320303A1 (SHENGHE CHINA BIOPHARMACEUTICAL, published 2025).

T1: human TNFR2 (tumor necrosis factor receptor 2), on cells (human, UniProt P20333 23-461)
T1 sequence (looked up): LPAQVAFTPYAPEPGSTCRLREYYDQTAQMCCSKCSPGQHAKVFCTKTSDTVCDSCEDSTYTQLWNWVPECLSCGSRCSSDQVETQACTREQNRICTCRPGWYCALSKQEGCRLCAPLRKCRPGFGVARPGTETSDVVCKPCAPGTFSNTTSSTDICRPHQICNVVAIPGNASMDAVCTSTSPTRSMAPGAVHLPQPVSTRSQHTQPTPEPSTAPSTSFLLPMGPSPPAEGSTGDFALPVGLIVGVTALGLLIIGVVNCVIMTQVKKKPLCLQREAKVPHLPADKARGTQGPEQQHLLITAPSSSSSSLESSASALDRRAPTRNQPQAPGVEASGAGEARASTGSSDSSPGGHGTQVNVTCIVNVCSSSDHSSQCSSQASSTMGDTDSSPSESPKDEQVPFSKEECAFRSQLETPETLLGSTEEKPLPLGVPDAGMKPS

T2: Recombinant human TNFR2-His Tag protein (Sino, Cat: 10417-H08H) (human, UniProt P20333 23-257)
T2 construct: Bought protein; also called hTNFR2; not shown: His tag
T2 sequence (looked up): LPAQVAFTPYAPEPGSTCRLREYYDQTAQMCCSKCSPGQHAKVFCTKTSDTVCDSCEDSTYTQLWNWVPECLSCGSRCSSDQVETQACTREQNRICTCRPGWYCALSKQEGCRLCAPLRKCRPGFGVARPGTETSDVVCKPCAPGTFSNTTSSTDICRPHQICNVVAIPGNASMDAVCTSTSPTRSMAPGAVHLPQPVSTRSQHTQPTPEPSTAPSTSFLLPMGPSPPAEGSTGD

T3: human W3785-hProl.ECD.His (Human-TNFR2-His) protein (human, UniProt P20333 23-257)
T3 construct: extracellular domain; not shown: His tag
T3 sequence (looked up): T2 sequence (looked up)

B1: Antibody 04 (antibody, V domains shown)
VH: EVHLQQSGPEVGRPGSSVKISCKASGYTFTDYIIHWVKQSPGQGLEWMGWIDPDYGNTDYADKFKKKATLTADASSNTAFIHLSRLTSEDTATYFCARDDGSPLVMDAWGQGTSVTVSS
VL: NIQLTQSPSLLSASVGDRVTLSCNGSQNIDNYLAWFQQKLGEAPKLLIYSTYSLQTGIPSRFSGSRSGTDYTLTISSLQPEDVATYFCFQYNNGYMFGAGTKLELK
notes: Rat monoclonal antibody from a hybridoma
B2: Antibody 04-xIgG1K (antibody, V domains shown)
VH: B1 VH
VL: NIQLTQSPSLLSASVGDRVTLSCNGSQNIDNYLAWFQQKLGEAPKLLIYSTYSLQTGIPSRFSGSRSGTDYTLTISSLQPEDVATYFCFQYNNGYMFGAGTKLELKR
notes: Rat-human chimeric antibody, human IgG1 kappa
B3: Antibody 10-xIgG1K (antibody, V domains shown)
VH: EVQLVETGGGLVQPGKSLKLTCATSGFTFSNAWMGWVRQSPEKQLEWVAQIKDKSNNYPTYYAESVKGRFTISRDDSESSVYLQMNSLKEEDTAIYYCTGYGDFFDYWGQGVVVTVSS
VL: DIQMTQSPASLSASLGETVTIECRASEDIYNGLAWYQQKPGNSPRLLIFNANSLHTGVPSRFSGSGSGTQYSLKINSLQSEDVASYFCQQYYDHPLTFGSGIKLEIKR
notes: as for B2
B4: Antibody 11-xIgG1K (antibody, V domains shown)
VH: EVQLQQSGPELRRPGSSVKLSCKASGYSITDYLLHWVKHSPEHGLEWIGWIDPEDGKTKYGQKFQSKATLTADTSSNAAYMQLSSLTSEDSATYFCAANSGTGTMDAWGQGASVTVSS
VL: DIVMTQSPTSMSISVGDRVTLNCKASQNVGSNVDWYQQKTGQSPKVLLYKASIRYTGVPDRFTGSGSGTEFTFTITNMQAEDLAVYFCMQSKSYPITFGSGTKLEIKR
notes: as for B2
B5: Antibody 10 (antibody, V domains shown)
VH: B3 VH
VL: DIQMTQSPASLSASLGETVTIECRASEDIYNGLAWYQQKPGNSPRLLIFNANSLHTGVPSRFSGSGSGTQYSLKINSLQSEDVASYFCQQYYDHPLTFGSGIKLEIK
notes: as for B1
B6: Antibody 11 (antibody, V domains shown)
VH: B4 VH
VL: DIVMTQSPTSMSISVGDRVTLNCKASQNVGSNVDWYQQKTGQSPKVLLYKASIRYTGVPDRFTGSGSGTEFTFTITNMQAEDLAVYFCMQSKSYPITFGSGTKLEIK
notes: as for B1

How the values were obtained:
[1] = molecular target: T1, human TNFR2 (tumor necrosis factor …); assay: cell-based or functional assay
[2] = molecular target: T1, human TNFR2 (tumor necrosis factor …); assay: flow cytometry on CHOK1-hTNFR2 cells
Procedure: CHOK1-hTNFR2 cells were plated at 1×10⁵/well (containing 1% BSA). 100 μL of isotype control and candidate antibodies were added at a concentration of 100 nm and 4-fold diluted in 11 gradients (containing 1% BSA). Cells were incubated at 4° C. for 1 hour and then washed twice with excess FACS buffer. Cells were resuspended in 100 μL of FACS buffer, and 100 μL of goat anti-rat IgG Fc-AF647 (1:500) containing 1% BSA was added, incubated at 4° C. without light for 30 minutes and washed twice with excess FACS buffer. Cells were fixed in fixation buffer and subsequently analyzed by flow cytometry. The FACS method screened for candidate antibodies with high specific binding activity to human TNFR2.

[3] = molecular target: T2, Recombinant human TNFR2-His Tag protein …; assay: competition ELISA: captured TNFR2-His, antibody titrated against 1.6 nM biotin-TNF-alpha (competitor)
Procedure: Anti-His antibody (1 μg/mL) was coated at 50 μL/well, incubated at 4° C. overnight and washed 3 times with PBST. 2% BSA was added at 200 μL/well, incubated at room temperature for 1 hour and washed 3 times with PBST. 0.25 μg/mL (containing 2% BSA) of recombinant human TNFR2-His Tag protein (Sino; Cat: 10417-H08H) was added at 50 μL/well, incubated for 1 hour at room temperature and washed 3 times with PBST. Primary antibody (isotype control or candidate antibody) was added at a concentration of 100 nM and diluted 4-fold in 11 gradients with a solution containing 1.6 nM recombinant human TNF-alpha-Biotin protein (Sino; Cat: 10602-HANE-B) and 2% BSA, incubated for 2 hours at room temperature and washed 3 times with PBST. Secondary antibody SA-HRP (1:5000) containing 2% BSA was added at 50 μL/well, incubated for 1 hour at room temperature and washed 3 times with PBST.
After washing, TMB developed the color for 10 min, and the OD450 reading was determined by the enzyme labeler after the display was terminated. Based on the experimental results, it was judged whether the candidate antibodies had ligand blocking activity. As shown in Table 2 and FIG. 2, 2 sequences show better ligand blocking ability than BMK2; 6 sequences show equivalent ligand blocking ability to BMK2.

[4] = molecular target: T2, Recombinant human TNFR2-His Tag protein …; assay: SPR (Biacore 8K), antibody captured by anti-rat Fc, 10 nM TNFR2-His as analyte, 1:1 model
Procedure: The CM5 sensor chip was activated at a flow rate of […] for 420 s. The channel was then injected with 30 μg/mL of anti-rat Fc IgG in 10 mM NaAc (pH 4.5) at a flow rate of 10 μL/min. The chip was inactivated with 1 M ethanolamine-hydrochloric acid (GE) for 420 s at a flow rate of 10 μL/min.
Candidate antibodies in running buffer 1×HBS-EP+(10 mM HEPES, 150 mM NaCl, 3 mM EDTA, 0.05% Tween 20, pH 7.4) were captured onto Fc2 with anti-rat Fc IgG at a flow rate of 10 μL/min. The 10 nM recombinant human TNFR2-His Tag protein (Sino; Cat: 10417-H08H) and running buffer were sequentially injected into Fc1-Fc2 at a flow rate of […], bound for 180 s, and then dissociated for 3600 s. 10 mM glycine (pH 1.5) was injected as regeneration buffer after each dissociation.
Result plots for the reference channel Fc1 and the buffer channel were subtracted from the test result plots. The experimental data fit the 1:1 binding model. The molecular weight of 26.6 kDa was used to calculate the molar concentration of recombinant human TNFR2-His Tag protein.

[5] = molecular target: T3, human W3785-hProl.ECD.His …; assay: BLI (Octet Red96e), antibody on AHC sensor, Human-TNFR2-His in solution, single concentration
Procedure: After equilibration of the AHC sensor with 0.02% PBST (0.02% Tween 20, pH 7.4, 1*PBS) as buffer for 60 s, the TNFR2 antibody in the sample plate was immobilized for 300 s, and second equilibration was performed for 180 s. 100 nM of human W3785-hProl.ECD.His (Human-TNFR2-His) protein was bound with the TNFR2 antibody for 300 s and then dissociated for 600 s. After dissociation, 10 mM glycine (pH 2.0) was used as regeneration buffer to regenerate for 30 s.

[6] = molecular target: T3, human W3785-hProl.ECD.His …; assay: indirect ELISA on coated Human-TNFR2-His
Procedure: (1) Coating: Human-TNFR2-His was diluted to 0.5 μg/mL with coating solution (1×PBS, pH 7.4), and coated into a 96-well ELISA plate at 100 μL/well at 4° C. overnight. The coating solution was poured off, and the plate was washed with 1×PBST at 300 μL per well, washed with a plate cleaning instrument for 4 times, and patted dry on sheet paper. [0184] (2) Blocking: it was blocked with 3% non-fat dry milk at 300 μL/well, and incubated at 37° C. for 1 h. The blocking solution was poured off, washed by a plate cleaning instrument for 4 times, and patted dry on sheet paper. [0185] (3) Sample dilution: the reference product and the test product were diluted with 3% non-fat dry milk to 10 μg/mL, and this was used as the initial concentration for 3-fold dilution with a total of 11 gradients of dilution, and another one blank well was set up, and only diluent was added. It was incubated at 100 μL/well at 37° C. for 1 h. Liquid in the wells was discarded, washed by a plate cleaning instrument for 4 times, and patted dry on the sheet paper. [0186] (4) Addition of enzyme-labeled secondary antibody: Peroxidase-conjugated AffiniPure F(ab′)2 Fragment Goat Anti-Human IgG was diluted with 3% non-fat dry milk at 1:20,000. It was incubated at 100 μL/well at 37° C. for 1 h. It was washed by a plate cleaning instrument for 6 times and patted dry on sheet paper. […] (5) Color development: TMB color development solution was added at 100 μL/well and wrapped with aluminium foil, and the color was developed at 37° C. without light for 8 min. [0188] (6) Termination of color development: terminal solution 1 M HCl was added to terminate the color development reaction at 100 μL/well. [0189] (7) Reading at 450 nm on the enzyme labeler. [0190]

[7] = molecular target: T3, human W3785-hProl.ECD.His …; assay: BLI (Octet Red96e), antibody on AHC sensor, Human-TNFR2-His in solution, multiple concentrations

| Binder | IC50(nM), Treg cell count after 72 h with IL2 and TNF-alpha [1] | Treg cell changes relative to IL-2(%) [1] | EC50 [2] | Maximum average fluorescence value [2] | IC50 [3] | Inhibition rate (%) [3] | Kd [4] | koff [4] | kon [4] | Kd [5] | EC50 [6] | Kd [7] | koff [7] | kon [7] |
| --- | --- | --- | --- | --- | --- | --- | --- | --- | --- | --- | --- | --- | --- | --- |
| B1 | 0.88 nM | 100% | 0.025 nM | 1320 | 0.584 nM | 96% | < 0.00758 nM | < 1e-05 s⁻¹ | 1.32e+06 M⁻¹ s⁻¹ |  |  |  |  |  |
| B2 |  |  |  |  |  |  |  |  |  | 0.148 nM | 0.00581 mg/L | 0.0606 nM | 6.65e-05 s⁻¹ | 1.1e+06 M⁻¹ s⁻¹ |
| B3 |  |  |  |  |  |  |  |  |  | 0.24 nM | 0.0143 mg/L | 0.0996 nM | 8.1e-05 s⁻¹ | 813000 M⁻¹ s⁻¹ |
| B4 |  |  |  |  |  |  |  |  |  | 0.396 nM |  | 0.317 nM | 0.000171 s⁻¹ | 542000 M⁻¹ s⁻¹ |
| B5 |  |  | 0.077 nM | 907 | > 100 nM | 12.2% | 0.15 nM | 7.4e-05 s⁻¹ | 492000 M⁻¹ s⁻¹ |  |  |  |  |  |
| B6 |  |  | 0.493 nM | 1010 | > 100 nM | 22.4% | 1.4 nM | 0.000169 s⁻¹ | 120000 M⁻¹ s⁻¹ |  |  |  |  |  |
